Laboratory results reported in patent US20210062263A1, “A CLINICAL […]” (priority 2016, published 2021).
“Also recorded” adds a separate entry of the source.

Experiments:
Type in all cases: cell-based, human
[1] = test system: keloid fibroblasts; test: qRT-PCR relative gene expression in keloid fibroblasts
Description: (§1) Normal and keloid tissue samples were collected from 11 patients and were used to establish primary fibroblast cultures. Using these fibroblasts, qRT-PCR for relative gene expressions and enzyme-linked immunosorbent assay (ELISA) for relative protein expressions were performed. Fibroblasts were also treated with 200 pM activin for 24 hours to examine the effects on fibrosis-related genes.
(§2) Normal and keloid tissue samples were collected from 11 patients and used to establish primary fibroblast cell cultures as described in Example 1. Relative expressions of fibrosis-related genes were examined using qRT-PCR. Protein levels of activin and follistatin, an activin-antagonist, were also measured by ELISA and radioimmunoassay in lysates of dermal fibroblasts. Furthermore, keloid fibroblasts were treated with 1 nM follistatin for 24 hours to examine the effects on fibrosis-related genes.
(§3) Normal and keloid fibroblasts were isolated and cultured from a patient. Relative expressions of fibrosis-related genes were examined using qRT-PCR. Protein levels of activin and follistatin were also measured by ELISA and radioimmunoassay in dermal fibroblasts as described in Example 2. Furthermore, keloid fibroblasts were daily treated with 1 nM follistatin for 1, 3 and 5 days to examine the effects on fibrosis-related genes.
(§4) Normal and keloid fibroblasts were isolated and cultured in vitro using standard fibroblast cell culture protocols. Relative gene expressions were examined using qRT-PCR. Protein levels of activin and follistatin were also measured in dermal fibroblasts by enzyme-linked immunosorbent assay and radioimmunoassay respectively. Cells were also treated with 100 ng/ml follistatin for 5 days to examine the effects on the expression of fibrosis-related genes.
(§5) The upregulation of CTGF by activin A was also confirmed in the multiple patient samples (FIG. 8n).
(§6) To investigate the role of AP1 in keloid pathogenesis, fibroblasts were treated for 3 days with SR11302, an inhibitor of AP1 activity. […] Moreover, in order to examine the effects of FST288, fibroblasts were treated for 3 days or 5 days.

[2] = test system: normal fibroblasts; test: qRT-PCR relative gene expression in normal fibroblasts
Description: as §1, §2, §3, §4, §5, §6

[3] = test system: keloid fibroblasts; test: Activin A protein in cell lysate and media of keloid fibroblasts; settings: after treatment with AP1 inhibitor
Description: as §1, §4, §6

[4] = test system: normal fibroblasts; test: Activin A protein in cell lysate and media of normal fibroblasts; settings: after treatment with AP1 inhibitor
Description: as §1, §4, §6

[5] = test system: keloid fibroblasts; test: Tolerance of keloid fibroblasts in culture (cell death); settings: 3 days
Description: as §6

[6] = test system: normal fibroblasts; test: Tolerance of normal fibroblasts in culture (cell death); settings: 3 days
Description: as §6

[7] = test system: keloid fibroblasts; test: RNA sequencing of keloid fibroblast cultures with/without follistatin; settings: single follistatin treatment
Description: RNAseq was performed with/without a single follistatin treatment on normal and keloid fibroblast cultures on day 1 and day 5 (FIG. 7) to compare the extent of gene expression changes in keloid disease.

[8] = SR11302 10 uM and 15 uM, 3 days
[9] = daily 1 nM follistatin, five days

Question: How did the CTGF gene expression [1, 8] turn out when CC1=C(/C=C/C(=C/C=C/C(C)=C/C(=O)O)c2ccc(C)cc2)C(C)(C)CCC1 [SR11302] was run?
Answer: The CTGF gene expression was “significantly decreased”.

Question: And the INHBA gene expression [1, 8]?
Answer: The INHBA gene expression was “significantly decreased”.

Question: And the CTGF gene expression [2, 8]?
Answer: Its CTGF gene expression is “significantly decreased”.

Question: What about the INHBA gene expression [2, 8] of the same molecule?
Answer: Its INHBA gene expression is “significantly decreased”.

Question: And the “activin A protein in cell lysate and media” value [3]?
Answer: The value was “significantly decreased”.

Question: And the “activin A protein in cell lysate and media” value [4]?
Answer: The value was “significantly decreased”.

Question: What about the “doses resulting in cell death” value [5] of the same molecule?
Answer: Its value is “higher than 20 uM”.

Question: And the “doses resulting in cell death” value [6]?
Answer: Its value is “higher than 20 uM”.

B1: follistatin: an activin-antagonist protein; isoform not stated in these examples (protein, UniProt P19883 30-344, looked up)
Follistatin: GNCWLRQAKNGRCQVLYKTELSKEECCSTGRLSTSWTEEDVNDNTLFKWMIFNGGAPNCIPCKETCENVDCGPGKKCRMNKKNKPRCVCAPDCSNITWKGPVCGLDGKTYRNECALLKARCKEQPELEVQYQGRCKKTCRDVFCPGSSTCVVDQTNNAYCVTCNRICPEPASSEQYLCGNDGVTYSSACHLRKATCLLGRSIGLAYEGKCIKAKSCEDIQCTGGKKCLWDFKVGRGRCSLCDELCPDSKSDEPVCASDNATYASECAMKEAACSSGVLLEVKHSGSCNSISEDTEEEEEDEDQDYSFPISSILEW
Question: Which CTGF gene expression ([1]; 1 nM follistatin, 24 hours) does the source give for B1 here?
Answer: Its CTGF gene expression is “significantly decreased”.

Question: And the “activin A gene expression” value ([1]; 1 nM follistatin, 24 hours)?
Answer: Its value is “significantly decreased”.

Question: What about the “CTGF (downstream target of activins) expression” value ([1]; 100 ng/ml follistatin, vs controls) of the same molecule?
Answer: The value was “declined significantly”.

Question: And the “activin A expression of the gene and its protein” value ([1]; after treatment with follistatin (summary of Examples 1 to 3))?
Answer: The value was “significant downregulation”.

Question: What about the CTGF gene expression [1, 9] of the same molecule?
Answer: Its CTGF gene expression is “significantly decreased”.

Question: And the “activin A gene expression” value [1, 9]?
Answer: Its value is “significantly decreased”.

Question: What about the “activin A gene expression” value ([1]; single treatment, 100 ng/ml follistatin) of the same molecule?
Answer: The value was “significantly decreased”.

Question: What about the “INHBA expression (RNAseq)” value ([7]; 5 days, 100 ng/ml) of the same molecule?
Answer: Its value is “diminished”.

Question: And the “CTGF expression (RNAseq)” value ([7]; day 5, 100 ng/ml)?
Answer: Its value is “significantly decreased”.

Question: What about the “PAI1 expression (RNAseq)” value ([7]; day 5, 100 ng/ml) of the same molecule?
Answer: Its value is “significantly decreased”.

Question: And the “other matrix related genes (RNAseq)” value ([7]; day 5, 100 ng/ml)?
Answer: Its value is “downregulated”.

B2: activin A: dimeric protein of the TGF-β superfamily, added exogenously at 200 pM (protein, UniProt P08476 311-426, looked up)
Inhibin beta A chain: GLECDGKVNICCKKQFFVSFKDIGWNDWIIAPSGYHANYCEGECPSHIAGTSGSSLSFHSTVINHYRMRGHSPFANLKSCCVPTKLRPMSMLYYDDGQNIIKKDIQNMIVEECGCS
modifications: Inhibin beta A chain homodimer
notes: dimeric protein of the TGF-β superfamily, added exogenously at 200 pM
Question: How did the CTGF gene expression ([1]; 200 pM activin A, 24 hours) turn out when B2 was run?
Answer: Its CTGF gene expression is “significantly upregulated”.

Question: What about the FOSB gene expression ([1]; 200 pM activin A, 24 hours) of the same molecule?
Answer: The FOSB gene expression was “significantly upregulated”.

Question: What about the IL6 gene expression ([1]; 200 pM activin A, 24 hours) of the same molecule?
Answer: The IL6 gene expression was “significantly upregulated”.

Question: And the “INHBA (activin A) gene expression” value ([1]; 200 pM activin A, 24 hours)?
Answer: The value was “further significant upregulation; also recorded: significantly upregulated”.

Question: And the JUNB gene expression ([1]; 200 pM activin A, 24 hours)?
Answer: The JUNB gene expression was “significantly upregulated”.

Question: And the PAI1 gene expression ([1]; 200 pM activin A, 24 hours)?
Answer: The PAI1 gene expression was “significantly upregulated”.

Question: And the TGFB2 gene expression ([1]; 200 pM activin A, 24 hours)?
Answer: The TGFB2 gene expression was “significantly upregulated”.

Question: And the “CTGF expression in fibroblasts from multiple patients” value ([1]; 200 pM activin A, multiple patient samples (normal/keloid not distinguished))?
Answer: Its value is “upregulation; also recorded: increased”.

Question: What about the CTGF gene expression ([2]; 200 pM activin A, 24 hours) of the same molecule?
Answer: Its CTGF gene expression is “significantly upregulated”.

Question: And the FOSB gene expression ([2]; 200 pM activin A, 24 hours)?
Answer: Its FOSB gene expression is “significantly upregulated”.

Question: And the IL6 gene expression ([2]; 200 pM activin A, 24 hours)?
Answer: The IL6 gene expression was “significantly upregulated”.

Question: And the “INHBA (activin A) gene expression” value ([2]; 200 pM activin A, 24 hours)?
Answer: Its value is “significantly upregulated”.

Question: What about the JUNB gene expression ([2]; 200 pM activin A, 24 hours) of the same molecule?
Answer: Its JUNB gene expression is “significantly upregulated”.

Question: What about the PAI1 gene expression ([2]; 200 pM activin A, 24 hours) of the same molecule?
Answer: Its PAI1 gene expression is “significantly upregulated”.

Question: And the TGFB2 gene expression ([2]; 200 pM activin A, 24 hours)?
Answer: Its TGFB2 gene expression is “significantly upregulated”.
